In US20260137799A1, “ANTI-MUC1* ANTIBODY DRUG COMPLEXES AND USES THEREOF” (Minerva Biotechnologies Corporation, priority 2023, published 2026):

How the values were obtained:
[1] = Toxicity in animal studies; format: in vivo; details: each antibody incorporated into several ADC formats
Excerpt: Exatecans and deruxtecans can also have bystander effects. […] It is not completely clear whether these side effects are due to the payload or to the HER2 target, which is also expressed on normal lung and normal heart. The first two patients treated with a HER2 targeting CAR T cell product died shortly after the infusion. […] More recently, yet another patient died after being treated with a different HER2-targeting ADC. […] 32CB1, C2 and 20A10 unexpectedly have an extremely high degree of cancer specificity and elicited no toxicities in animal studies, where each antibody was incorporated into several ADC formats.

MUC1*45 = MUC1*45 (UniProt P15941 1110-1255); experiment: cell-based or functional assay
[2] = tested on: breast cancer, pancreatic cancer, and lung cancer cell lines; experiment: Cytotoxicity of ADCs with additional linkers and toxins (FIGS. 30-31); format: cell-based; details: breast cancer and pancreatic cancer cell
Method: FIG. 30 is a table showing cytotoxicity of the indicated MUC1* ADCs against indicated cancer cells. IC50 values were determined from xCELLigence data. FIG. 30 discloses “GGFG” as SEQ ID NO: 160, “GGGG” as SEQ ID NO: 161, “GGVA” as SEQ ID NO: 162, “GGVG” as SEQ ID NO: 163.
FIG. 31 is a table showing cytotoxicity of the indicated MUC1* ADCs against indicated cancer cells. IC50 values were determined from PrestoBlue data.
An anti-MUC1* antibody was conjugated to several toxins via a number of different linkers (compounds VIII-XXII).

HPAFII-MUC1* = experiment: PrestoBlue live/dead cell assay, HPAFII-MUC1*; format: cell-based, human; details: Presto Blue; 72-120 hour incubation
Method: (§1) Another method of measuring the killing activity of ADCs against target cancer cells is to use the PrestoBlue live/dead cell assay (ThermoFisher). Target cancer cells were seeded in a black-walled, clear-bottom 96-well tissue culture plate at a density of 5000 cells/well (100 μL of a 50,000 cells/mL stock) and incubated overnight in a 37° C./5% CO2 incubator. ADCs were prepared as a 2× solution in corresponding cancer cell growth media and 100 μL of each concentration was added to target cancer cells. As a positive control (100% killing) cancer cells were treated with 1 μM Taxol instead of ADC. After 72 hour-120 hour incubation in a 37° C./5% CO2 incubator, cell viability was measure by fluorescence using the PrestoBlue HS assay (ThermoFisher). Briefly, after the incubation period, 20 μL of PrestoBlue HS solution was added. Fluorescence (Ex 560 nm/Em 590 nm) was recorded after 30-90 min. incubation using a Tecan plate reader. Percentage viability was determined by PrestoBlue HS staining and normalized to 1 μM taxol treated cells.
(§2) The normalized fluorescence values were imported into the graph program, Sigma Plot, data plotted as ADC concentration versus normalized fluorescence signal and curve fitted using a four-parameter Hill equation: f=y0+a*x^b/(c^b+x^b) to calculate IC50 values. IC50 values for the ADCs were generally consistent between the xCELLigence and Presto Blue assays.

T47D-MUC1* = experiment: PrestoBlue live/dead cell assay, T47D-MUC1*; format: cell-based, human; details: Presto Blue; 72-120 hour incubation
Method: as §1, §2

HPAFII = experiment: PrestoBlue live/dead cell assay, HPAFII; format: cell-based, human; details: Presto Blue; 72-120 hour incubation
Method: as §1, §2

T47D = experiment: xCELLigence impedance cytotoxicity, T47D; format: cell-based, human; details: Example 9 (FIGS. 35-36); average over batches for DXd ADCs; read-out: IC50 for killing of breast cancer T47D-wt cells
Method: (§3) An xCELLigence RTCA MP Instrument (Agilent) was used to assess real-time killing of target cancer cells). In the xCELLigence system, target cancer cells, which are adherent, are plated onto electrode array 96-well plates. Adherent cells insulate the electrode and increase the impedance. The number of adherent cancer cells is directly proportional to impedance. […] Therefore, increasing impedance reflects the growth of the cancer cells and decreasing impedance reflects the killing of the cancer cells.
(§4) Target Cancer cells (Table 9) were seeded onto a multi-electrode well plate at a density of 5000 cells/well (100 μL of a 50,000 cells/mL stock) and incubated for 24 hr in a 37° C./5% CO2 incubator. ADCs were prepared as a 2× solution in corresponding growth media and 100 μL of each concentration was added to target cells. As a positive control (100% cell killing) cells were treated with either 1% triton or 1 μM Taxol instead of ADC. After 40-120 hours incubation in a 37° C./5% CO2 incubator cell killing was assessed. In this assay, impedance is measured in real-time. When the adherent cancer cells are killed and come off the electrode surface, impedance (insulation) decreases.

[3] = tested on: H2110-wt lung cancer cell line; experiment: xCELLigence impedance cytotoxicity, H2110; format: cell-based, human; details: Example 9 (FIGS. 35-36); read-out: IC50, lung cancer H2110-wt cells
Method: as §3, §4
(§5) To directly compare the C2 and 3C2B1 anti-MUC1* antibodies as ADC targeting domains, a panel of MUC1* positive cancer cell lines representing different cancer types were treated with C2-deruxtecan versus 3C2B1-deruxtecan (FIG. 35) or C2-MC-VA-PAB-exatecan versus 3C2B1-MC-VA-PAB-exatecan (FIG. 36). In some cases, the cancer cells were engineered to express high levels of MUC1*45.

NCI-H1975 = experiment: xCELLigence impedance cytotoxicity, NCI-H1975; format: cell-based, human; details: Example 9 (FIGS. 35-36); read-out: IC50 for killing of H1975-wt cells
Method: as §3, §4

[4] = tested on: CFPAC1-wt pancreatic cancer cell line; experiment: xCELLigence impedance cytotoxicity, CFPAC1; format: cell-based, human; details: Example 9 (FIGS. 35-36); read-out: IC50, CFPAC1-wt pancreatic cancer cells
Method: as §3, §4, §5

PSMGFR C-10 peptide = target: T1, PSMGFR C-10 peptide; experiment: ELISA on PSMGFR C-10 peptide; Table 4 grade
T1 peptide: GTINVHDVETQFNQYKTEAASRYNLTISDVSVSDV

B1: 20A10: anti-MUC1* monoclonal antibody, IgG2b isotype (antibody)
VH: EVMLVESGGGLVKPGGSLKLSCAASGFTFSTYAMSWIRQTPEKRLEWVASIGRAGSTYYSDSVKGRFTISRDNVRNILYLQMSSLRSEDTAMYYCARGPIYNDYDEFAYWGQGTLVTVSAAKTTPPSVYPLAPGCGDTTGSSVTLGCLVKGYFPESVTVTWNSGSLSSSVHTFPALLQSGLYTMSSSVTVPSSTWPSQTVTCSVAHPASSTTVDKKLEPSGPISTINPCPPCKECHKCPAPNLEGGPSVFIFPPNIKDVLMISLTPKVTCVVVDVSEDDPDVRISWFVNNVEVHTAQTQTHREDYNSTIRVVSALPIQHQDWMSGKEFKCKVNNKDLPSPIERTISKIKGLVRAPQVYILPPPAEQLSRKDVSLTCLVVGFNPGDISVEWTSNGHTEENYKDTAPVLDSDGSYFIYSKLDIKTSKWEKTDSFSCNVRHEGLKNYYLKKTISRSPGK
VL: NIMMTQSPSSLAVSAGEKVTMSCKSSQSVLYSSNQKNYLAWYQQKPGQSPKLLIYWASTRESGVPDRFTGSGSGTDFTLTISSVQAEDLAVYYCHQYLSSLTFGAGTKLELKADAAPTVSIFPPSSEQLTSGGASVVCFLNNFYPKDINVKWKIDGSERQNGVLNSWTDQDSKDSTYSMSSTLTLTKDEYERHNSYTCEATHKTSTSPIVKSFNRNEC
toxicities in animal studies [1]: no toxicities

B2: C2-deruxtecan (antibody, mouse IgG1, kappa)
VH: EVQLEESGGGLVKPGGSLKLSCAASGFTFSGYAMSWVRQTPEKRLEWVATISSGGTYIYYPDSVKGRFTISRDNAKNTLYLQMSSLRSEDTAMYYCARLGGDNYYEYFDVWGAGTTVTVSSAKTTPPSVYAKTTPPSVYPLAPGSAAQTNSMVTLGCLVKGYFPEPVTVTWNSGSLSSGVHTFPAVLQSDLYTLSSSVTVPSSTWPSETVTCNVAHPASSTKVDKKIVPRDCGCKPCICTVPEVSSVFIFPPKPKDVLTITLTPKVTCVVVDISKDDPEVQFSWFVDDVEVHTAQTQPREEQFNSTFRSVSELPIMHQDWLNGKEFKCRVNSAAFPAPIEKTISKTKGRPKAPQVYTIPPPKEQMAKDKVSLTCMITDFFPEDITVEWQWNGQPAENYKNTQPIMDTDGSYFVYSKLNVQKSNWEAGNTFTCSVLHEGLHNHHTEKSLSHSPGK
VL: DIVITQSTASLGVSLGQRATISCRASKSVSTSGYSYMHWYQQRPGQPPKLLIYLASNLESGVPARFSGSGSGTDFTLNIHPVEEEDAATYYCQHSRELPFTFGGGTKLEIKRADAAPTVSADAAPTVSIFPPSSEQLTSGGASVVCFLNNFYPKDINVKWKIDGSERQNGVLNSWTDQDSKDSTYSMSSTLTLTKDEYERHNSYTCEATHKTSTSPIVKSFNRNEC
modifications: deruxtecan (MC-GGFG-AM-DXd) on reduced cysteine thiols of the antibody, sites not stated; deruxtecan (MC-GGFG-AM-DXd) on reduced cysteine thiols of the antibody, sites not stated; average DAR 7.7
IC50, killing of H1975 lung cancer cells engineered to express MUC1*45 (xCELLigence) (MUC1*45): 54 nM
IC50, killing of T47D breast cancer cells engineered to express MUC1*45 (xCELLigence) (MUC1*45): 2 nM

B3: C2 MC-VA-AM DXd (conjugate, listed as Mus sp.)
heavy: EVQLEESGGGLVKPGGSLKLSCAASGFTFSGYAMSWVRQTPEKRLEWVATISSGGTYIYYPDSVKGRFTISRDNAKNTLYLQMSSLRSEDTAMYYCARLGGDNYYEYFDVWGAGTTVTVSSAKTTPPSVYAKTTPPSVYPLAPGSAAQTNSMVTLGCLVKGYFPEPVTVTWNSGSLSSGVHTFPAVLQSDLYTLSSSVTVPSSTWPSETVTCNVAHPASSTKVDKKIVPRDCGCKPCICTVPEVSSVFIFPPKPKDVLTITLTPKVTCVVVDISKDDPEVQFSWFVDDVEVHTAQTQPREEQFNSTFRSVSELPIMHQDWLNGKEFKCRVNSAAFPAPIEKTISKTKGRPKAPQVYTIPPPKEQMAKDKVSLTCMITDFFPEDITVEWQWNGQPAENYKNTQPIMDTDGSYFVYSKLNVQKSNWEAGNTFTCSVLHEGLHNHHTEKSLSHSPGK
light: DIVITQSTASLGVSLGQRATISCRASKSVSTSGYSYMHWYQQRPGQPPKLLIYLASNLESGVPARFSGSGSGTDFTLNIHPVEEEDAATYYCQHSRELPFTFGGGTKLEIKRADAAPTVSADAAPTVSIFPPSSEQLTSGGASVVCFLNNFYPKDINVKWKIDGSERQNGVLNSWTDQDSKDSTYSMSSTLTLTKDEYERHNSYTCEATHKTSTSPIVKSFNRNEC
modifications: conjugated MC-VA-AM DXd linker-toxin
IC50 compared to deruxtecan ADC [2]: three-fold lower

B4: C2 MC-VC-PAB MMAF (conjugate, listed as Mus sp.)
heavy: EVQLEESGGGLVKPGGSLKLSCAASGFTFSGYAMSWVRQTPEKRLEWVATISSGGTYIYYPDSVKGRFTISRDNAKNTLYLQMSSLRSEDTAMYYCARLGGDNYYEYFDVWGAGTTVTVSSAKTTPPSVYAKTTPPSVYPLAPGSAAQTNSMVTLGCLVKGYFPEPVTVTWNSGSLSSGVHTFPAVLQSDLYTLSSSVTVPSSTWPSETVTCNVAHPASSTKVDKKIVPRDCGCKPCICTVPEVSSVFIFPPKPKDVLTITLTPKVTCVVVDISKDDPEVQFSWFVDDVEVHTAQTQPREEQFNSTFRSVSELPIMHQDWLNGKEFKCRVNSAAFPAPIEKTISKTKGRPKAPQVYTIPPPKEQMAKDKVSLTCMITDFFPEDITVEWQWNGQPAENYKNTQPIMDTDGSYFVYSKLNVQKSNWEAGNTFTCSVLHEGLHNHHTEKSLSHSPGK
light: DIVITQSTASLGVSLGQRATISCRASKSVSTSGYSYMHWYQQRPGQPPKLLIYLASNLESGVPARFSGSGSGTDFTLNIHPVEEEDAATYYCQHSRELPFTFGGGTKLEIKRADAAPTVSADAAPTVSIFPPSSEQLTSGGASVVCFLNNFYPKDINVKWKIDGSERQNGVLNSWTDQDSKDSTYSMSSTLTLTKDEYERHNSYTCEATHKTSTSPIVKSFNRNEC
modifications: MC-VC-PAB-MMAF
notes: ADC: antibody C2 conjugated via MC-VC-PAB linker to MMAF
IC50 (HPAFII-MUC1*): 90 nM
IC50 (T47D-MUC1*): 1.3 nM
IC50 (HPAFII): 100 nM

B5: 3C2B1-MC-VA-PAB-exatecan (antibody, V domains shown)
VH: EVMLVESGGGLVKPGGSLKLSCAASGITFSTYTMSWVRQTPEKRLEWVATISTGGDKTYYSDSVKGRFTISRDNAKNNLYLQMSSLRSEDTALYYCARGTTAMYYYAMDYWGQGTSVTVSS
VL: DIVLTQSPASLAVSLGQRATISCRASKSISTSDYNYIHWYQQKPGQPPKLLIYLASNLESGVPARFSGSGSGTDFTLNIHPVEEEDAATYYCQHSRELPLTFGAGTKLELK
modifications: MC-VA-PAB-exatecan on reduced cysteine thiols of the antibody, sites not stated; MC-VA-PAB-exatecan on reduced cysteine thiols of the antibody, sites not stated; DAR 5.2
IC50 (T47D): 77 nM
IC50 [3]: 113 nM
IC50 (NCI-H1975): 189 nM
IC50, killing of H1975 cells engineered to express MUC1*45 (xCELLigence) (MUC1*45): 141 nM
IC50, killing of T47D cells engineered to express more MUC1*45 (xCELLigence) (MUC1*45): 31 nM
IC50 [4]: 40 nM

B6: anti-MUC1* antibody 20A10 (antibody, IgG2b, V domains shown)
VH: EVMLVESGGGLVKPGGSLKLSCAASGFTFSTYAMSWIRQTPEKRLEWVASIGRAGSTYYSDSVKGRFTISRDNVRNILYLQMSSLRSEDTAMYYCARGPIYNDYDEFAYWGQGTLVTVSA
VL: NIMMTQSPSSLAVSAGEKVTMSCKSSQSVLYSSNQKNYLAWYQQKPGQSPKLLIYWASTRESGVPDRFTGSGSGTDFTLTISSVQAEDLAVYYCHQYLSSLTFGAGTKLELKA
notes: Humanised form is m25
binding result (PSMGFR C-10 peptide): no binding
